# According to patent US20230303719, “HUMANIZED 3E10 ANTIBODIES, VARIANTS, AND ANTIGEN BINDING FRAGMENTS THEREOF” (YALE UNIVERSITY, published 2023):
# What was measured:
# [1] = molecular target: humanized 3E10 V66 (HEK293) (synthetic construct, UniProt P01857; SEQ:1-446,SEQ:1-218); assay: BLI; 1:1 model; antibody on AHC2 sensor; ka 2.42E5, kdis 3.13E-4; settings: tags: human Fc IgG; transiently expressed in HEK293; chain copies: 2 heavy + 2 light (inferred); hairpin
# [2] = molecular target: 3E10-D31N (chimeric, murine VH/VL); assay: BLI; 1:1 model; antibody on AHC2 sensor; ka 2.29E5, kdis 4.76E-4; settings: tags: human Fc IgG; chain copies: 2 heavy + 2 light (inferred); hairpin
# humanized 3E10 V66 (CHO) = humanized 3E10 V66 (CHO) (synthetic construct, UniProt P01857; SEQ:1-446,SEQ:1-218); assay: BLI; 1:1 model; antibody on AHC2 sensor; ka 3.08E5, kdis 7.99E-4; settings: tags: human Fc IgG; transiently expressed in CHO; chain copies: 2 heavy + 2 light (inferred); hairpin
# [3] = molecular target: 3E10-D31N IgG4 S228P/F234A/L235A/H310Q (synthetic construct, UniProt P01861; SEQ:1-443,SEQ:1-218); assay: BLI; 1:1 model; antibody on AHC2 sensor; RNA 62.5-500 nM; settings: tags: human IgG4 Fc; chain copies: 2 heavy + 2 light (inferred); hairpin
# [4] = molecular target: 3E10-D31N IgG4 S228P/F234A/L235A/M252Y/S254T/T256E (synthetic construct, UniProt P01861; SEQ:1-443,SEQ:1-218); assay: as above; settings: tags: human IgG4 Fc; chain copies: 2 heavy + 2 light (inferred); hairpin
# [5] = molecular target: 3E10-D31N (chimeric, murine VH/VL); assay: as above; settings: tags: human Fc IgG; chain copies: 2 heavy + 2 light (inferred); hairpin
# [6] = molecular target: 3E10-D31N IgG4 S228P/F234A/L235A/T307Q/N434A (synthetic construct, UniProt P01861; SEQ:1-443,SEQ:1-218); assay: as above; settings: tags: human IgG4 Fc; chain copies: 2 heavy + 2 light (inferred); hairpin
# [7] = molecular target: 3E10-D31N IgG4 S228P/F234A/L235A (synthetic construct, UniProt P01861; SEQ:1-443,SEQ:1-218); assay: as above; settings: tags: human IgG4 Fc; chain copies: 2 heavy + 2 light (inferred); hairpin
# Sequence of humanized 3E10 V66 (HEK293) (P01857 other isoform, or with tags, fused parts or gaps, chain 1 of 2): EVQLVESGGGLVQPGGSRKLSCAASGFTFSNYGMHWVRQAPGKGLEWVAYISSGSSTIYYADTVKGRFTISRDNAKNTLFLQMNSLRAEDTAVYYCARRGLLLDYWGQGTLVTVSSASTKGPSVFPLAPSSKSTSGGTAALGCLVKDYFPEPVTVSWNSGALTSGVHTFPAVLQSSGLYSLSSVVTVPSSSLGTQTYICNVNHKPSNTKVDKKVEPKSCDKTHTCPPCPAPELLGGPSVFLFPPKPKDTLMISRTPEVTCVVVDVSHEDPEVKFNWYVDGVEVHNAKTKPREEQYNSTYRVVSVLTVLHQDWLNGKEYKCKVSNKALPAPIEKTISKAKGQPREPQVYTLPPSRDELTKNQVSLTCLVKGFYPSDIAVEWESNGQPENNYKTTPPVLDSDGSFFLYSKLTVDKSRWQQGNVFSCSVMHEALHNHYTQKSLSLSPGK
# Sequence of humanized 3E10 V66 (HEK293) (chain, as listed by the source, chain 2 of 2): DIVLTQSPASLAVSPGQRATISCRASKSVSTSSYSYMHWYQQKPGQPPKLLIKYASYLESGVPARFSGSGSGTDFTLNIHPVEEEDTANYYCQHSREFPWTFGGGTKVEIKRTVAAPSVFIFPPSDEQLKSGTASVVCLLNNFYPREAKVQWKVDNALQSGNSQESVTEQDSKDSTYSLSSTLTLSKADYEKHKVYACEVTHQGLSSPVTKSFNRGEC
# Sequence of humanized 3E10 V66 (CHO) (P01857 other isoform, or with tags, fused parts or gaps, chain 1 of 2): as the sequence (P01857 other isoform, or with tags, fused parts or gaps, chain 1 of 2) above
# Sequence of humanized 3E10 V66 (CHO) (chain, as listed by the source, chain 2 of 2): as the sequence (chain, as listed by the source, chain 2 of 2) above
binder,measurement,setting,value
"3p-hpRNA RIG-I agonist (89 nt) (ssRNA, 5'-triphosphate) RNA: GGAGCAAAAGCAGGGUGACAAAGACAUAAUGGAUCCAAACACUGUGUCAAGCUUUCAGGUAGAUUGCUUUCUUUGGCAUGUCCGCAAAC",Kd,[1],1.3 nM
same,Kd,[2],2.08 nM
same,Kd,humanized 3E10 V66 (CHO),2.6 nM
same,Kd,[3],6.58 nM
same,Kd,[4],5 nM
same,Kd,[5],10.5 nM
same,Kd,[6],12.7 nM
same,Kd,[7],3.33 nM
